# Experimental data reported in US7923535B2, “Tryptophan as a functional replacement for ADP-ribose-arginine in recombinant proteins” (The United States of America as represented by the …, priority 2002, dated 2011).
# Where a chain is given by its changes, count along the chain named. In names and notes the source's numbering stands. Entries after “also recorded” stand apart in the source; their conditions may differ.
# B1: ART2b(R204K): rat ART2b with arginine-to-lysine substitution at position 204 (protein)
# chain: LTGPLMLDTAPNAFDDQYEGCVNKMEEKAPLLLQEDFNMNAKLKVAWEEAKKRWNNIKPSRSYPKGFNDFHGTALVAYTGSIAVDFNRAVREFKENPGQFHYKAFHYYLTRALQLLSNGDCHSVYRGTKTRFHYTGAGSVRFGQFTSSSLSKKVAQSQEFFSDHGTLFIIKTCLGVYIKEFSFKPDQEEVLIPGYEVYQKVRTQGYNEIFLDSPKRKKSNYNCLYS
# B2: ART2b(R204W): rat ART2b with arginine-to-tryptophan substitution at position 204 (protein, UniProt P20974 21-246, looked up, variant R204W)
# T-cell …: B1 chain with K184W
# B3: ART2b: rat ADP-ribosyltransferase ART2b (RT6.2), SEQ ID NO:12, wild type (protein, listed as Rattus norvegicus)
# chain: MPSNICKFFLTWWLIQQVTGLTGPLMLDTAPNAFDDQYEGCVNKMEEKAPLLLQEDFNMNAKLKVAWEEAKKRWNNIKPSRSYPKGFNDFHGTALVAYTGSIAVDFNRAVREFKENPGQFHYKAFHYYLTRALQLLSNGDCHSVYRGTKTRFHYTGAGSVRFGQFTSSSLSKKVAQSQEFFSDHGTLFIIKTCLGVYIKEFSFRPDQEEVLIPGYEVYQKVRTQGYNEIFLDSPKRKKSNYNCLYSSAGARESCVSLFLVVLPSLLVQLLCLAEP
# What was measured:
# [1] = system: Escherichia coli ATCC43827; conditions: compared with unmodified HNP-1; see PCT/US03/04649; cited from earlier work
# A549 cells [2] = assay: Chromium release assay (defensin cytotoxicity); format: cell-based; conditions: 1.5 to 24 μM, 18 hours, 37° C., serum-free RPMI; compared with unmodified HNP-1
# Method: Chromium-labeled A549 cells (American Type Culture Collection) were incubated (18 hours, 37° C.) in 100 μl of serum-free RPMI (Gibco Fluids Inc., Rockville, Md.) containing HNP-1, ADP-ribosyl-HNP-1, or HNP-1 with either an R:W substitution or an R:F substitution (1.5 to 24 μM) to quantify defensin cytotoxicity. Cytotoxicity is measured as the amount of chromium released from the cells (Panyutich et al., “Human neutrophil defensins and serpins form complexes and inactivate each other,” Am. J. Respir. Cell. Mol. Biol. 12:351-357, 1995).
# CD3^+ T-cells = assay: Chemotaxis assay; format: cell-based, human; conditions: 0.025 to 25 nM in lower chamber, 4 hours, 37° C.
# Method: CD3^+ T-cells are isolated from human peripheral blood prepared by leukapheresis (NIH, Department of Transfusion Medicine, Bethesda, Md.) (Chertov et al., J. Biol. Chem. 271:2935-2940, 1996) and suspended in migration medium (RPMI 1640, 0.5% bovine serum albumin, 25 mM HEPES). Inserts coated with collagen IV (Becton Dickinson Labware, Bedford, Mass.) are placed into 24-well culture plates to form upper and lower chambers in each well. Upper chambers are wetted with migration medium, then 500 μl of migration medium with or without ADP-ribosyl-HNP-1, HNP-1, or with HNP-1 with either an R:W substitution or an R:F substitution (0.025 to 25 nM) are added to the lower chamber. Cells are added to the upper chamber and plates are incubated at 37° C. in 5% CO2 for 4 hours. Lymphocytes that migrate to the lower chamber are harvested by centrifugation and counted in a hematocytometer.
# A549 cells [3] = assay: IL-8 production by A549 cells (indirect ELISA); format: cell-based; conditions: concentrations of 0.75 and 1.5 μM; 12 or 24 hours; compared with the unmodified peptide
# Method: […] Culture medium is sampled after 12 or 24 hours of incubation and IL-8 content is assayed by indirect ELISA according to the manufacturer's instructions (R & D System Inc. Minneapolis, Minn.).
# HNP-1 = molecular target: T1, HNP-1 (Homo sapiens, UniProt P59665); assay: Blocking of HNP-1 cytotoxic activity (radial diffusion and chromium release assays after pre-incubation with HNP-1); format: cell-based; conditions: pre-incubated 1 hour at 37° C. with HNP-1 (100 nM, E. coli; 12 μM, chromium release)
# T1 sequence (P59665 65-94 limits assumed): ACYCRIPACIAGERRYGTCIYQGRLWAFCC
# Method: HNP-1 (100 nM) is incubated for 1 hour at 37° C. with ADP-ribosylated HNP-1, or HNP-1 with either an R:W substitution or an R:F substitution (0-800 nM) before the initiation of the cytotoxicity assay on E. coli.
# HNP-1 (12 μM) is incubated with ADP-ribosyl-HNP-1, or HNP-1 with either an R:W substitution or an R:F substitution (1.5-12 μM) for 1 hour at 37° C. before the initiation of the chromium release assay.
# [4] = Auto-ADP-ribosylation of PI-PLC released recombinant ART2 proteins with [^32P]NAD, SDS-PAGE; format: biochemical, rat; conditions: for auto-ADP-ribosylation at multiple sites (decrease in mobility on SDS-PAGE): 10 μM [^32P]NAD, followed by 5 mM unlabeled NAD; for auto-ADP-ribosylation: [^32P]NAD added to PI-PLC released protein, SDS-PAGE
# Method: To investigate the structural basis for these differences in catalytic function, site-specific mutagenesis was employed with synthesis of recombinant ART2b and ART2a proteins in rat adenocarcinoma cells (NMU) under a dexamethasone-sensitive promoter. After induction and expression of the GPI-anchored proteins, cells were incubated with PI-PLC to cleave the GPI anchor and then [^32P]-NAD was added to the medium to promote auto-ADP-ribosylation of the released protein (FIG. 2).
# To assess the ability of ART2 proteins, ART2a and ART2b, to be auto-ADP-ribosylated at multiple sites, proteins were incubated first with 10 μM [^32P]NAD, followed by addition of 5 mM unlabeled NAD and further incubation (FIG. 4). […] It is unlikely that auto-modification was due to non-enzymatic addition of [^32P]ADP-ribose since reactions were carried out in the presence of 1 mM ADP-ribose, or due to NAD binding, since the radiolabel was not displaced by incubation with 5 mM NAD.
# ART2b(R204K) = molecular target: T2, ART2b(R204K) (Rattus norvegicus, UniProt P20974, R204K); assay: Incubation of wildtype ART2b with ART2b(R204K) and millimolar NAD (intermolecular modification); format: biochemical; conditions: millimolar NAD, with or without ART2b(R204K)
# T2 construct: made in house; host or cells: rat mammary adenocarcinoma (NMU) cells, pMAMneo vector, dexamethasone-induced; released with PI-PLC
# T2 sequence (P20974 21-246 R204K limits assumed): B1 chain
# Method: The blots contain samples from cells expressing wild type ART2b (lanes 1), ART2b(R204K) (lanes 2), or a mixtures of samples containing ART2b and ART2b(R204K) (lanes 3). Samples were incubated with or without 10 μM [^32P]NAD followed by either TCA precipitation or further incubation with 5 mM NAD. The radiolabeled wild type ART2b and ART2b(R204K) proteins were combined and then incubated with or without 5 mM NAD.
# To investigate whether ART2b(R204K) could be modified, wildtype ART2b was incubated with its mutant ART2b(R204K) and millimolar NAD (FIG. 5).
# [5] = NAD glycohydrolase (NADase) assay; format: biochemical, rat; conditions: for NADase activity during the course of the reaction (rate of NAD hydrolysis): change over the course of the reaction; for NADase activity: PI-PLC released recombinant protein from NMU cells, 0.1 mM [carbonyl-^14C]NAD, 1 hour at 30° C.
# Method: (§1) NADase activity was measured in DPBS with 0.1 mM [carbonyl-^14C]NAD (8×10^4 cpm) for 1 hour at 30° C., (total volume=150,u). Samples (50,u) were applied to AG1-X2 (BIO-RAD, Hercules, Calif.) columns (0.4×4 cm), equilibrated and eluted with water for liquid scintillation counting as described (Moss et al., Proc Natl Acad Sci U S A 73(12):4424-7, 1976). Transferase activity was assayed similarly with or without 20 mM agmatine as ADP-ribose acceptor and with [adenine-^14C]NAD substituted for [carbonyl-^14C]NAD.
# [6] = ADP-ribosyltransferase assay with agmatine as ADP-ribose acceptor; format: biochemical, rat; conditions: 20 mM agmatine as ADP-ribose acceptor
# Method: as §1
Molecule,cytotoxicity for E. coli ATCC43827 in the radial diffusion assay [1],cytotoxicity for A549 cells (chromium released) (A549 cells [2]),ability to recruit T cells (CD3^+ T-cells),IL-8 release (A549 cells [3]),effect on the cytotoxic activity of HNP-1 (HNP-1),auto-ADP-ribosylation at multiple sites (decrease in mobility on SDS-PAGE) [4],auto-ADP-ribosylation [4],modification (mobility on SDS-PAGE) after incubation of wildtype ART2b with ART2b(R204K) and NAD (ART2b(R204K)),NADase activity during the course of the reaction (rate of NAD hydrolysis) [5],transfer of ADP-ribose to agmatine [6],NADase activity [5]
ADP-ribosylated HNP-1: human neutrophil peptide HNP-1 (alpha defensin) with ADP-ribosylated arginine,less cytotoxic than unmodified HNP-1,less cytotoxic than unmodified HNP-1,retain their ability to recruit T cells,significantly higher,blocks the cytotoxic activity of HNP-1 in a concentration-dependent manner,,,,,,
B1,,,,,,not modified by incubation with NAD,abolished both the primary and secondary modifications,not modified by wildtype ART2b in an intermolecular reaction,did not change,,
B2,,,,,,weak auto-ADP-ribosylation activity at multiple sites,auto-ADP-ribosylation at non-arginine sites,,decreased during the course of the reaction,unable to transfer ADP-ribose to agmatine,greater than that of wild-type ART2b
B3,,,,,,exhibited auto-ADP-ribosylation following incubation with 5 mM NAD,significantly auto-ADP-ribosylated; also recorded: Multiple species of auto-ADP-ribosylated,exhibited decreasing mobility on SDS-PAGE,decreased during the course of the reaction,unable to transfer ADP-ribose to agmatine,have NADase activity
